Assay results from paper PMC11062541.
pKd: −log10 of the molar value. Where two headings read alike, the source gives them in different places.

Columns and labels:
Test in all cases: EMSA
[1] = tested on: SezA (Streptococcus suis serotype 5 strain HN105)
[2] = tested on: T1, AbiEi (Streptococcus suis serotype 5 strain HN105), ORF:22a13f51
T1 sequence: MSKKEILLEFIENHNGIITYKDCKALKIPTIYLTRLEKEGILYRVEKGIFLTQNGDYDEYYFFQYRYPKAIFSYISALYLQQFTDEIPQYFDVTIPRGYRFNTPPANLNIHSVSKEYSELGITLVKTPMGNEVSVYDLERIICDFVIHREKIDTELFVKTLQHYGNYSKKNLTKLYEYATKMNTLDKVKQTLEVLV

[3] = tested on: T2, SezA (Streptococcus suis serotype 5 strain HN105), ORF:21ec5bb3
T2 sequence: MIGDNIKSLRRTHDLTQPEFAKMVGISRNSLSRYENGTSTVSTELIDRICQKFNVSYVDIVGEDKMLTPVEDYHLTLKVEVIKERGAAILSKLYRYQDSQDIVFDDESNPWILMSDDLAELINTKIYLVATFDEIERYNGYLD

[4] = tested on: T3, AbiEiDel-AHTH internal_change (Streptococcus suis serotype 5 strain HN105), ORF:22a13f51
T3 sequence: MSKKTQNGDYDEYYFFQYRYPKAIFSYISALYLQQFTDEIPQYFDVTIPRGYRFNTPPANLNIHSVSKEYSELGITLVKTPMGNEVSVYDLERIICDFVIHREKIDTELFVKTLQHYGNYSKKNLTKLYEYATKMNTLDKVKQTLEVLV

[5] = tested on: AbiEi (Streptococcus suis serotype 5 strain HN105)

**Q.** L sequence (attL) was tested. Which pKd [1] did it give?
**A.** Its pKd is 5.71.

**Q.** Which results are given for “GGGACATTATAACCGATGAGGAACAAATTCTTGATAAGTCAATCCAAGAAGCGAAAAATAAACTGAATACTGAGCAGTTGGAGAAGCGAATAGAGGAGTTTAAGCAATCGAAGAAACCTAAAAACGGATAATGCACCAAATATGGTGCGTTATCCGTTTTTTATGGTATAATGAAAGCAAATATGAGGAGGTCTTTATCT (double strand) [SezAT promoter]”?
**A.** binding [2]: binds; binding [3]: binds

**Q.** “AGTACAGGACTGGATTCAATTTTATGCCAAAATTCCTGCCAAACTTCAAATTTATGAACTCAAACCCCTTGATACTGCACATTTAACAGGTTGTGCAATTTAGAGTTTCCAATCAAAATAAAAACCTATCACCTAATGTGGTAGGTTTTTTTTGTTCTATTGTTGCAAACGTTTTCGTTGTGGGGTATAATATAAAAAAT (double strand) [L-ΔattL]” was tested. Which binding ([3]; attL deleted) did it give?
**A.** Its binding is “no binding”.

**Q.** What does the source list for “CCTACTATCCTTTCAACATGATATTTGTCTGACAATGTAAGGCTGCCTCACATTGTCAGTACGCTTCCTAAAGACTTCACTCTCTCCTTGTTCGGTCTTTGCGAGCTCAGATATTGTGTCCACAATATCCCCAGTAGAAAATCAACACTTGATTTTTTTAGGAATGATATTAGGATAATAGAGGTGATTTGGAAAAGGTATCACAAAACAAAAAGTAGGATATTTCTAACCTACTTTTCATTTCCTTATA (double strand) [T sequence (oriT)]”?
**A.** pKd [2]: 6.82; binding [4]: no binding

**Q.** T sequence (oriT) was tested. Which pKd [5] did it give?
**A.** Its pKd is 6.82.

**Q.** With “AGAAAGTGATGATTACATGTTTTGGTCATAAATAGTCCTTCTTTTCTTTTTTCTGTAGCAACAAACTGTCACTCTTTTCTCATCATAAAAAAGAAGGCTTGATTTTGTTATCACAATACATTAATGTAAAAGAAATATTGTAAAATTGTAGTATAAAAGCAACATTGGAAGGAGTAAGT (double strand) [PAbiE-ΔIR2]” as the substance, how does the binding ([2]; IR2 deleted) read?
**A.** The binding was “binds”.

**Q.** With “ACTTACTCCTTCCTTTTACAATATTTGTAGTGCAAAAGCAACATTTTCTTTTACATTAATGTATTGTGATAACAAAATCAAGCCTTCTTTTTTATGATGAGAAAAGAGTGACAGTTTGTTGCTACAGAAAAAAGAAAAGAAGGACTATTTATGACCAAAACATGTAATCATCACTTTCT (double strand) [PAbiE-ΔIR1]” as the substance, how does the binding ([2]; IR1 deleted) read?
**A.** Its binding is “binds”.

**Q.** “TATAAGGAAATGAAAAGTAGGTTAGAAATATCCTACTTTTTGTTTTGTGATACCTTTTCCAAATCACCTCTATTATCCTAATATCATTCCTAAAAAAATCAAGTGTTGATTTTCTACTGCGAACAAGGAGAGAGTGAAGTCTTTAGGAAGCGTACTGACAATGTGAGGCAGCCTTACATTGTCAGACAAATATCATGTTGAAAGGATAGTAGG (double strand) [T-ΔoriT]” was tested. Which binding ([2]; oriT deleted) did it give?
**A.** Its binding is “no binding”.

**Q.** “AGATAAAGACCTCCTCATATTTGCTTTCATTATACCATATATTAGGTTTCTTCGATTGCTTAAACTCCTCTATTCGCTTCTCCAACTGCTCAGTATTCAGTTTATTTTTCGCTTCTTGGATTGACTTATCAAGAATTTGTTCCTCATCGGTTATAATGTCCC (double strand) [PSezAT-ΔIR1/2]” was tested. Which binding ([3]; IR1 and IR2 deleted) did it give?
**A.** The binding was “no binding”.

**Q.** How did the binding [2] turn out when “AGAAAGTGATGATTACATGTTTTGGTCATAAATAGTCCTTCTTTTCTTTTTTCTGTAGCAACAAACTGTCACTCTTTTCTCATCATAAAAAAGAAGGCTTGATTTTGTTATCACAATACATTAATGTAAAAGAAAATGTTGCTTTTGCACTACAAATATTGTAAAATTGTAGTATAAAAGCAACATTGGAAGGAGTAAGT (double strand) [AbiE promoter]” was run?
**A.** The binding was “binds”.

**Q.** What about the binding [3] of the same substance?
**A.** Its binding is “no binding”.

**Q.** What about the binding [4] of the same substance?
**A.** Its binding is “no binding”.

**Q.** How did the pKd [3] turn out when “AGTACAGGACTGGATTCAATTTTATGCCAAAATTCCTGCCAAACTTCAAATTTATGAACTCAAACCCCTTGATACTGCACATTTAACAGGTTGTGCAATTGTTACTCTTAAATAATAGAGTTTCCAATCAAAATAAAAACCTATCACCTAATGTGGTAGGTTTTTTTTGTTCTATTGTTGCAAACGTTTTCGTTGTGGGGTATAATATAAAAAAT (double strand) [L sequence (attL)]” was run?
**A.** Its pKd is 5.71.

**Q.** “AGAAAGTGATGATTACATGTTTTGGTCATAAATAGTCCTTCTTTTCTTTTTTCTGTAGCAACAAACTGTCACTCTTTTCTCATCATAAAAAAGAAGGCTTGATTTTGTTATCACAATACATTAATGTAAAAGAAATATTGTAAAAGGAAGGAGTAAGT (double strand) [PAbiE-ΔIR1/2]” was tested. Which binding ([2]; IR1 and IR2 deleted) did it give?
**A.** The binding was “no binding”.
